Measured values as given in article PMC10491584, “Structural convergence endows nuclear transport receptor Kap114p with a transcriptional repressor function toward TATA-binding protein” (Nature Communications, 2023).

Columns and labels:
Kap114p (Y370A) = molecular target: T1, Kap114p (Y370A) (S. cerevisiae, UniProt P53067 1-1004, Y370A); assay: ITC; MicroCal iTC200, 25 °C, 20 mM HEPES pH 7.4, 150 mM NaCl; high concentration: 50 µM wild type or mutant Kap114p in the sample cell, 500 µM wild type or mutant yTBPC in the syringe; triplicate; conditions: both partners purified
T1 construct: Kap114p, S. cerevisiae, full length with Y370A; also called GST-Kap114p (Y370A); source: E. coli Rosetta, purified (GST resin, MonoQ, Superdex 200)
T1 sequence (looked up): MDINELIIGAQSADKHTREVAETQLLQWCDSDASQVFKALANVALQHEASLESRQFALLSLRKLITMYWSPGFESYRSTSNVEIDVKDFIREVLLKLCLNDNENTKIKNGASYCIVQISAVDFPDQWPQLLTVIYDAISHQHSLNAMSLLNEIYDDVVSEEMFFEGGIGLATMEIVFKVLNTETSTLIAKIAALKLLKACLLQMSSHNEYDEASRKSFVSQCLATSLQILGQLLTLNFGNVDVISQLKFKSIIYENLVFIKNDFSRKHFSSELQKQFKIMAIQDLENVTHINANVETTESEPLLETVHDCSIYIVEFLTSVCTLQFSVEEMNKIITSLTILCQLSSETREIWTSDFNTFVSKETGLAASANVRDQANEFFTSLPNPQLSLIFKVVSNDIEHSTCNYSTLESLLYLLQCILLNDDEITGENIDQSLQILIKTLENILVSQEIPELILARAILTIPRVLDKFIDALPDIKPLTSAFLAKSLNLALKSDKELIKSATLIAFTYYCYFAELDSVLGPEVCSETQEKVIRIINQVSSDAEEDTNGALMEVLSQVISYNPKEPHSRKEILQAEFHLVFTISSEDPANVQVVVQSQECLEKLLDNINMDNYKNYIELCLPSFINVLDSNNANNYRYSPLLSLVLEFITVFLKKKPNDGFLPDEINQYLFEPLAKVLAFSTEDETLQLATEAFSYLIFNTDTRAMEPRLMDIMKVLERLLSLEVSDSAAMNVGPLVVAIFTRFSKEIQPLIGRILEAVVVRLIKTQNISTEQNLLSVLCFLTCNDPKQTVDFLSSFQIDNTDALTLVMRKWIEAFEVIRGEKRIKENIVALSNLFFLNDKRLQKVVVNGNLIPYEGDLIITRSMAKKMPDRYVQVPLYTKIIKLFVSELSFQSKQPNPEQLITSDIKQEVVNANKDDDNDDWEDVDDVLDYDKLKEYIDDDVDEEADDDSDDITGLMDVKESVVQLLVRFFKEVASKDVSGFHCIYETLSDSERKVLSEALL

Kap114pΔ(Y933) = molecular target: T2, Kap114pΔ(Y933) (S. cerevisiae, UniProt P53067 1-1004, ΔY933); assay: as above; conditions: both partners purified
T2 construct: Kap114p, S. cerevisiae, full length with residue Y933 deleted; also called GST-Kap114p (Δ933); source: E. coli Rosetta, purified (GST resin, MonoQ, Superdex 200)
T2 sequence (looked up): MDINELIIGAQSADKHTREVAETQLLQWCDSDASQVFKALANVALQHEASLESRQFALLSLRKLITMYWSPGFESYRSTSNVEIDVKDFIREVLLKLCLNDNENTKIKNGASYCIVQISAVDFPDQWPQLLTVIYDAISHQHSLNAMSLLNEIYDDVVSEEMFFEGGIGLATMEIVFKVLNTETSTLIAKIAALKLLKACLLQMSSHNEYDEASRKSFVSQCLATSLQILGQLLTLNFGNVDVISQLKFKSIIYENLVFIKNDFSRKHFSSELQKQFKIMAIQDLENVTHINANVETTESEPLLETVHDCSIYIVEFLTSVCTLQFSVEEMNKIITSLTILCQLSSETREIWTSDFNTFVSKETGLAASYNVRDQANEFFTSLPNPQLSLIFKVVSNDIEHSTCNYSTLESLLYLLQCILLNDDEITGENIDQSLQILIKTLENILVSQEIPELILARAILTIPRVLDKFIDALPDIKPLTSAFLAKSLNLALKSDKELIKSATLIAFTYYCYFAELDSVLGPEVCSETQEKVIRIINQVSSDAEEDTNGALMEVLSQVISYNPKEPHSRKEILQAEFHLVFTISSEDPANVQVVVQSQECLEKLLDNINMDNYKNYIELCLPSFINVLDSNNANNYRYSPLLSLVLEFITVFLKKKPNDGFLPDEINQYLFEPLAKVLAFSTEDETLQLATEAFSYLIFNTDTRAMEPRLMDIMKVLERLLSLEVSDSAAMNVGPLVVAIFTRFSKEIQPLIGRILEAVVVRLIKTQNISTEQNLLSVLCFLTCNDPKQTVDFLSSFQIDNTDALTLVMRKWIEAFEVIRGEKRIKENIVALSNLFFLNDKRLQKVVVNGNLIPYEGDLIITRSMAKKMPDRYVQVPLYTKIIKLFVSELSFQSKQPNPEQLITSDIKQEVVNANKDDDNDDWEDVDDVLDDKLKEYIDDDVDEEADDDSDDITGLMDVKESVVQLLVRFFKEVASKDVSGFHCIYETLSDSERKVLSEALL

Kd (Kap114p (Y370A)): 20 nM
Kd (Kap114pΔ(Y933)): 7.7 nM
B1: yTBP^C wild type (core domain of yeast TATA-box binding protein, a.a. 61-240) (domain or fragment, S. cerevisiae, UniProt P13393 61-240, looked up)
chain: SGIVPTLQNIVATVTLGCRLDLKTVALHARNAEYNPKRFAAVIMRIREPKTTALIFASGKMVVTGAKSEDDSKLASRKYARIIQKIGFAAKFTDFKIQNIVGSCDVKFPIRLEGLAFSHGTFSSYEPELFPGLIYRMVKPKIVLLIFVSGKIVLTGAKQREEIYQAFEAIYPVLSEFRKM
notes: modified pET28a, 6xHis tag followed by a PreScission site; also called yTBPC WT; His-yTBP (61-240); source: E. coli Rosetta, purified (Ni-NTA, HiTrap SP, Superdex 75); not shown: His6, N-terminal, cleaved
